One variant from IntAct's records for PubMed 23454120 can be followed below.

B1: Rho-related GTP-binding protein RhoD (Mus musculus), P97348 (parent)
chain: MNASQVAGEEAPQSGHSVKVVLVGDGGCGKTSLMMVFAKGAFPESYSPTVFERYNATLQMKGKPVHLQIWDTAGQDDYDRLRPLFYPDANVLLLCFDVTNPNSFDNVSNRWYPEVTHFCKGVPIIVVGCKIDLRKDKVLVNNLRKKRLEPVTYHRGHDMARSVGAVAYLECSARLHDNVEAVFQEAAEVALSSRRHNFWRRITQNCCLAT

In this experiment the parent is B1. The note with it: with dapk3_human DAPK3, O43293.
Sequence of dapk3_human DAPK3, O43293 (O43293 whole entry, looked up): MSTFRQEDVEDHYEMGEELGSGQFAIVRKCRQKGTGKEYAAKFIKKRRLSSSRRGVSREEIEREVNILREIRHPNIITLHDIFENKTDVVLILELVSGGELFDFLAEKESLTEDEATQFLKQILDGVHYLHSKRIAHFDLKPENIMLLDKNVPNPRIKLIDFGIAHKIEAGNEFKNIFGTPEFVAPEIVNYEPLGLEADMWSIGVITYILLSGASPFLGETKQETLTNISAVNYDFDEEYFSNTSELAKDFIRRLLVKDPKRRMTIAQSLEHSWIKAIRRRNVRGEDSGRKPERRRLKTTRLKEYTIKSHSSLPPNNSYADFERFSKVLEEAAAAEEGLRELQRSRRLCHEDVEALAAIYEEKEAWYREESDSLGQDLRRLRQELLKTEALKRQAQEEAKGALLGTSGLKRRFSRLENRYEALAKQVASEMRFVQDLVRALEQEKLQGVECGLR
For the variant T31N, the “effect of a mutation on the interaction” value was “disrupting interaction”.
